Assays:
[1] = molecular target: CASV L-Cterm (C-terminal 326 amino acids of the California Academy of Sciences virus L protein, residues 1721-2046) (California Academy of Sciences virus (CASV)) (UniProt J7HBG8); assay: SAXS
[2] = molecular target: CASV L-Cterm (C-terminal 326 amino acids of the California Academy of Sciences virus L protein, residues 1721-2046) (California Academy of Sciences virus (CASV)) (UniProt J7HBG8); assay: SEC
[3] = molecular target: isolated CASV L-Cterm domain 2 (California Academy of Sciences virus (CASV)); assay: SAXS

Substance	stoichiometry N [1]	stoichiometry N [2]	stoichiometry N [3]
CASV L-Cterm (C-terminal 326 amino acids of the California Academy of Sciences virus L protein, residues 1721-2046) (from UniProt J7HBG8 1721-2046) (domain or fragment)	2	2	
isolated CASV L-Cterm domain 2 (domain or fragment)			2
